Results as given in the supplement of paper PMC9170038.

Test system: K4 kissing-loop RNA reporter
Experiment: apparent KD of K4 kissing-loop reporter; higher = weaker reporter binding
Settings: Eterna round: R107
Experimental: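 RNA-MaP round R107: designed RNA switches with theophylline, tryptophan, arginine or FMN aptamers are transcribed on-chip within common flanks. They are titrated with a labelled K4 kissing-loop RNA reporter in RNA-MaP buffer (100 mM Tris pH 7.5, 80 mM KCl, 4 mM MgCl2), without ligand or with the indicated ligand. Median apparent KD per design.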

[1] = input ligand: theophylline 20 uM
[2] = input ligand: tryptophan 2.4 mM
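Note: bound reporter read as fluorescence of individual clusters on recovered sequencing chips by microscopy, with normalized cluster intensities fitted with a binding model.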

Sequence	apparent KD of K4 kissing-loop reporter (input ligand: FMN 200 uM) [nM]	apparent KD of K4 kissing-loop reporter (input ligand: arginine 13.2 mM) [nM]	apparent KD of K4 kissing-loop reporter (input ligand: none) [nM]	apparent KD of K4 kissing-loop reporter [1] [nM]	apparent KD of K4 kissing-loop reporter [2] [nM]
AAAAUAAACCAGUGAUGUUGGUGUCUAGAUACCAGCGACGAAAGUCGCCCUUGGCAGCUAUGGACGUACAAAAUAAGUACGUCCU [MatMod 6 - Jieux - Same State - Theophylline A]	647	459	617	679	612
AAACAUUGGUCUGAUACCAGCUGAUCGGAAACGAUCAUGCUGGAGUGAUGUUCCAGGAAAAGCCCUUGGCAGCAGACCGAUGAAA [MAT - Same State Theophlline B - Mod of Eli - D28]	94.7	103	75.6	184	137
AAACGCUUGAAUAACAAGCGAAUAAAUUCGCGAGGACCGGUACGGCCGCCACUCGCUAACUGCGAGUGAUGUUCGAUAAUAAAAU [Mat - Mod of OpenEnded 3 - D14]	115	91.8	170	176	95
AAACGUUGGUCUGAUACCAGCUGAUCGGAAACGAUCUUGCUGGAGUGAUGUUCCAGGAAAAGCCCUUGGCAGCAGACCGACGAAA [MAT - Same State Theophlline B - Mod of Eli - D25]	901	714	1510	1260	894
AAAGGAGUGGAAGGAUAUCCUGGUGUGGGUGGUGUUAGUGAUGUUGGUGGUGCAGUGAUGUUGCGCGGAGAAGGUCCGGUAUUGG [BDazzled - #2 - Exc. FMN B]	485	462	437	517	410
AAAUAAAACUAUGAUACCAGUCAUCACAGAGUGAUGUUUUGUGGCAUUUUAAACUUGGCAGACCCUUGGCAGCAUGAUAUAGGAG [theeternabot_sameState_KL_Theo_B_8]	486	207	318	358	261
AAAUAAAGCAGUCACCCAGUGAUGUUGGAAGGAGCGUGCGAAAGCACAGGUAGGUCGCCGAUAAAGGACAAAGUCCGUGGCUGCA [#SwitchBubble 29 #K4Early]	275	350	253	279	190
AAAUUUAAUAUAUUUAAUUAAUUAUGUGAUACCAGACAUUUAUAAGUCCCUUGGCAGCACUUUGCAGUGAUGUUGCUUAUAAUAA [JR_SSTheophyA_Sub014]	88.8	97.1	91.4	192	83.8
AAAUUUAUAUUAGAUACCAGCAAAUUGAAAGUUUAUUAUGACAAGAGUGAUGUUCUUGUAUGCCCUUGGCAGCUGGUAUGGGUUU [KL-XTheo-B26]	112	106	120	111	108
AAAUUUUAAAGUGAUACCAGACAUCUCUAUUACAUUAAUAUAGCUAAGUGAUGUUUAGCAGUCCCUUGGCAGCACAAUUUAAUUA [JR_SSTheophyB_Sub012]	336	316	334	474	266
AAAUUUUCGAGUGAUGUUCGAAUAAUUUCAGAGGAUAUGCUUAAAAGCAGAAGGCUGUAUUACUAUUUGUUAUUAAAUUUUAUAA [JR_ExcFMNA_Sub001]	106	110	96.7	105	86.2
AACAGCAAUGCGGCCGCCACUUCGAGUUCAGUGAUGUUGAAAGAAUUAAAUAAAGAUCCCAAGAGGAGGACCGGGCAGUGCUGUU [Default title]	596	448	530	621	418
